The source of these data is paper PMC2764547 (Structure (London, England : 1993), 2009).

Broadly, the EC50 is the midpoint of the concentration-response curve. A high value points to lower potency in that assay. As usually defined, the Kd is the equilibrium constant for the complex coming apart. Higher therefore signals lower affinity. In general, stoichiometry N refers to the number of molecules, sites or subunits per partner or assembly. The Km is the concentration of substrate that gives half-maximal velocity.

Values joined by “and” are separate entries in the source; they are usually repeats but may differ in a detail not shown here. Identical values can stand only once. Where a SMILES comes first, the peptide text is derived from it. Where no end group is shown, it is not given here. fluorescein = fluorescein-β-alanine label at the N-terminus; βAla = NCCC(=O)O

In data set [1] the target is wild-type DegS (Escherichia coli, UniProt P0AEE3). Nature of the data set: biochemical. Also noted: species or system E. coli.
The target in data set [2] is H198P DegS (Escherichia coli, UniProt P0AEE3, H198P). The experiment in a line: biochemical. Also noted: species or system E. coli.
Data set [3] has as its target fluorescein-β-alanine-… OMP peptide. Nature of the data set: fluorescence polarisation. In general terms: Fluorescence polarisation rises when a labelled molecule tumbles more slowly, as on binding a larger partner.
In data set [4] the target is T1, H198P/D320A E. coli DegS (residues 27-355) (E. coli) (UniProt P0AEE3).
T1 sequence: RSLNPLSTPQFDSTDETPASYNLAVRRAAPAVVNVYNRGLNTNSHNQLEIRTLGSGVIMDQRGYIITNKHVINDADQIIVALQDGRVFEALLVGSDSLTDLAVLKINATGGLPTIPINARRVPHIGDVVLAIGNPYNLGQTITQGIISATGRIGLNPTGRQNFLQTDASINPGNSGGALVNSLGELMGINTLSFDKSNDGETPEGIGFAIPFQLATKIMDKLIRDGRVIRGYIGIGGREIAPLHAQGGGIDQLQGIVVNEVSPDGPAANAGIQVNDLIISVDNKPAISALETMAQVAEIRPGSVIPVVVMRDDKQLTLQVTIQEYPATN

Data set [5] addresses T2, H198P E. coli DegS (residues 27-355) (E. coli) (UniProt P0AEE3).
T2 sequence: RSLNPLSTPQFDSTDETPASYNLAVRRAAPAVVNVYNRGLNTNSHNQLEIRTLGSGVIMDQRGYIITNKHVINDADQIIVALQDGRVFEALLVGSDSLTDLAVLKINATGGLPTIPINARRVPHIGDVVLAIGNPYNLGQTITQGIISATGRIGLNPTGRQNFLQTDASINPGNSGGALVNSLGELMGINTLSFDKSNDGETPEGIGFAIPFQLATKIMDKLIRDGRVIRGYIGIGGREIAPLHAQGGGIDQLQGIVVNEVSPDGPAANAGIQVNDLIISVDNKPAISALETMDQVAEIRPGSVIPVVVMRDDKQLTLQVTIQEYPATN

In data set [6] the target is T3, H198P/K243D E. coli DegS (residues 27-355) (E. coli) (UniProt P0AEE3).
T3 sequence: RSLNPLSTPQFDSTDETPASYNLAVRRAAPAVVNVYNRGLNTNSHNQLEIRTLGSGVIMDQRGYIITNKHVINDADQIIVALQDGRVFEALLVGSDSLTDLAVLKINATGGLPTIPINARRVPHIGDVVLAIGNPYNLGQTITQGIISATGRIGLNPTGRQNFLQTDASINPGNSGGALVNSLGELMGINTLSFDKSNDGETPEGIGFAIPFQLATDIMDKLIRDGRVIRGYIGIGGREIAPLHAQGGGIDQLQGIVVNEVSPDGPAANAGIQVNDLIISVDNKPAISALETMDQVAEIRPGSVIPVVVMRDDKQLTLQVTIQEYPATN

Data set [7] concerns the molecule itself. The experiment in a line: crystal structure.
Data set [8] has as its system RseA. Nature of the data set: Steady-state RseA cleavage. Type of data set: biochemical, E. coli. Particulars: OMP peptide: None, 23 ± 1 °C, average of two or more determinations; for Km: KM of RseA.
Data set [9] addresses T4, H198P/D320A E. coli DegS (residues 27-355) (E. coli, UniProt P0AEE3 27-355, H198P | D320A).
T4 sequence (looked up): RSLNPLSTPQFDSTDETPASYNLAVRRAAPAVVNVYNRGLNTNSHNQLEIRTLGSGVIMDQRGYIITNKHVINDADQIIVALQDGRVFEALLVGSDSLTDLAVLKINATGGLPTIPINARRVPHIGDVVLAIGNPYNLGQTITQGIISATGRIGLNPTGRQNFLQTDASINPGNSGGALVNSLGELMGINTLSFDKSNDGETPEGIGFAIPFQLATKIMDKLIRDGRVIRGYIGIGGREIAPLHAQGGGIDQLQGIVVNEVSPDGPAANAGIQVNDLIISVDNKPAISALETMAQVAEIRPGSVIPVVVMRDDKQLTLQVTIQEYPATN
The experiment in a line: fluorescence polarisation.

The target of data set [10] is T5, K243D E. coli DegS (residues 27-355) (E. coli, UniProt P0AEE3 27-355, K243D).
T5 sequence (looked up): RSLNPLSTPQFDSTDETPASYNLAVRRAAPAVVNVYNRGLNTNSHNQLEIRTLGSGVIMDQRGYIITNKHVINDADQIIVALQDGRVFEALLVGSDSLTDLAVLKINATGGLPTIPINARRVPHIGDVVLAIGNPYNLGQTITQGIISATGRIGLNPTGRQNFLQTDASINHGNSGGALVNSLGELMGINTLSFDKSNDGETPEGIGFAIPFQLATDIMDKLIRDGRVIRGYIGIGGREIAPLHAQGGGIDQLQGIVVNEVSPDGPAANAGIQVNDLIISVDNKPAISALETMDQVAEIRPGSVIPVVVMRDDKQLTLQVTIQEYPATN
The experiment in a line: fluorescence polarisation.

Data set [11] deals with T6, H198P/K243D E. coli DegS (residues 27-355) (E. coli, UniProt P0AEE3 27-355, H198P | K243D).
T6 sequence (looked up): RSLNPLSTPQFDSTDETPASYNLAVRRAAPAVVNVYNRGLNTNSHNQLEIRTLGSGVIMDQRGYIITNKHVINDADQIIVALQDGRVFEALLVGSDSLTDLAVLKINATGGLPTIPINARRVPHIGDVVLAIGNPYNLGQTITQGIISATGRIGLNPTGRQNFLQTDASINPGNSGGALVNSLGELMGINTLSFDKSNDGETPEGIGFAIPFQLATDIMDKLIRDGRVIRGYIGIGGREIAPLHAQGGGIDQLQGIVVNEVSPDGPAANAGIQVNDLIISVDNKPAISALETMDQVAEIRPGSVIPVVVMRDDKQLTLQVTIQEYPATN
The experiment in a line: fluorescence polarisation.

Data set [12] has as its target T7, H198P E. coli DegS (residues 27-355) (E. coli, UniProt P0AEE3 27-355, H198P).
T7 sequence (looked up): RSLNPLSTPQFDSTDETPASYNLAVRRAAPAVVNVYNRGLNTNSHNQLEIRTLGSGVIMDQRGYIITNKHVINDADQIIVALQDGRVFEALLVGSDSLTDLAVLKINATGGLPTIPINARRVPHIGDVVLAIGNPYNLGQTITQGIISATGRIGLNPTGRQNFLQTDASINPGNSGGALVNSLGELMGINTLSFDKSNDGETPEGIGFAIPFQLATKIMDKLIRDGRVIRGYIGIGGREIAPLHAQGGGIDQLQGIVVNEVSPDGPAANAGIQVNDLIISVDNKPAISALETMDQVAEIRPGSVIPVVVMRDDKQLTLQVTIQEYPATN
Nature of the data set: fluorescence polarisation.

The target in data set [13] is T8, D320A E. coli DegS (residues 27-355) (E. coli, UniProt P0AEE3 27-355, D320A).
T8 sequence (looked up): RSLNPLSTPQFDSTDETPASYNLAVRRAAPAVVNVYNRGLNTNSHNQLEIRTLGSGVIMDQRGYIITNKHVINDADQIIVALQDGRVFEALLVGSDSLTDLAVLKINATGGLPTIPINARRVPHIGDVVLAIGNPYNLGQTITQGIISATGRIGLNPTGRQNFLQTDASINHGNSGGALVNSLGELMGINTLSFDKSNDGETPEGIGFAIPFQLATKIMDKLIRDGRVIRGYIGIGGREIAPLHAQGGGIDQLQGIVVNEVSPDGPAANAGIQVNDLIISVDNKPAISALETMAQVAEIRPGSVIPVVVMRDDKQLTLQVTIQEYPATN
Nature of the data set: fluorescence polarisation.

Data set [14] deals with T9, wild-type E. coli DegS (residues 27-355) (E. coli, UniProt P0AEE3 27-355).
T9 sequence (looked up): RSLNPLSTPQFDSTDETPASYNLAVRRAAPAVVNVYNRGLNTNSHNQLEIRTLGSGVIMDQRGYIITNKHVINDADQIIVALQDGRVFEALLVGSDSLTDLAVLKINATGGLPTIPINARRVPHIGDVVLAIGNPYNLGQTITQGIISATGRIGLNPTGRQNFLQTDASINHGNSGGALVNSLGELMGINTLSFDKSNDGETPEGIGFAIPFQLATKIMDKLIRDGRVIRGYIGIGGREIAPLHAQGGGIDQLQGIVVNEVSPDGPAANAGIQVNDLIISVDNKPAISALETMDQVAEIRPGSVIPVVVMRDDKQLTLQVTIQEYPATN
Nature of the data set: fluorescence polarisation.

As for DNRDGNVYQF, the half-maximal effective concentration (EC50) was determined as 50 ± 5 µM in data set [1] and 4.4 ± 0.6 µM in [2].

Take “PDZ domain of E. coli DegS (domain or fragment)”: in data set [3], the Kd came out at 0.6 µM.

As for `NC(=O)CC[C@H](NC(=O)[C@@H](N)Cc1ccc(O)cc1)C(=O)N[C@@H](Cc1ccccc1)C(=O)O` [YQF] (H-Tyr-Gln-Phe-OH), the 50% effective concentration (EC50) was 260 ± 10 µM in [1] and 29 ± 5 µM in data set [2].

B1: 35S-labeled variant of the periplasmic domain of E. coli RseA (residues 121-216) (domain or fragment)
chain: YNGQSETSQQPETPVFNTLPMMGKASPVSLGVPSEATANNGQQQQVQEQRRRINAMLQDYELQRRLHSEQLQFEQAQTQQAAVQVPGIQTLGTQSQ
modifications: 35S-labeled
B1: the KM of RseA cleavage, without OMP peptide in data set [4] was 110 µM. Also, in [5], the KM of RseA cleavage, with saturating YQF peptide was 69 µM; the KM of RseA cleavage, with saturating YYF peptide turned out to be 64 µM; the KM of RseA cleavage, with saturating … peptide was 94 µM and 130 µM; the KM of RseA cleavage, without OMP peptide was found to be 560 µM. Moreover, in data set [6], the KM of RseA cleavage, without OMP peptide turned out to be 70 µM.

B2: DFP-modified H198P/D320A E. coli DegS (residues 27-355) (enzyme, UniProt P0AEE3 27-355, looked up)
chain: RSLNPLSTPQFDSTDETPASYNLAVRRAAPAVVNVYNRGLNTNSHNQLEIRTLGSGVIMDQRGYIITNKHVINDADQIIVALQDGRVFEALLVGSDSLTDLAVLKINATGGLPTIPINARRVPHIGDVVLAIGNPYNLGQTITQGIISATGRIGLNPTGRQNFLQTDASINPGNSGGALVNSLGELMGINTLSFDKSNDGETPEGIGFAIPFQLATKIMDKLIRDGRVIRGYIGIGGREIAPLHAQGGGIDQLQGIVVNEVSPDGPAANAGIQVNDLIISVDNKPAISALETMAQVAEIRPGSVIPVVVMRDDKQLTLQVTIQEYPATN
modifications: Ser201 modified by diisopropylfluorophosphate (DFP); seen as monoisopropylphosphorylserine (Mis201) in the crystal structures
With B2, in data set [7], the “stoichiometry N” value is 3.

B3: H198P/D320A: DegS double mutant (protein)
chain: RSLNPLSTPQFDSTDETPASYNLAVRRAAPAVVNVYNRGLNTNSHNQLEIRTLGSGVIMDQRGYIITNKHVINDADQIIVALQDGRVFEALLVGSDSLTDLAVLKINATGGLPTIPINARRVPHIGDVVLAIGNPYNLGQTITQGIISATGRIGLNPTGRQNFLQTDASINPGNSGGALVNSLGELMGINTLSFDKSNDGETPEGIGFAIPFQLATKIMDKLIRDGRVIRGYIGIGGREIAPLHAQGGGIDQLQGIVVNEVSPDGPAANAGIQVNDLIISVDNKPAISALETMAQVAEIRPGSVIPVVVMRDDKQLTLQVTIQEYPATN
modifications: left off: His6, N-terminal, state not stated
Take B3: in [8], the Km was 110 ± 10 µM and the Vmax worked out at 1.6 ± 0.2 s^-1 enz^-1.

B4: H198P/K243D: DegS double mutant (protein)
chain: RSLNPLSTPQFDSTDETPASYNLAVRRAAPAVVNVYNRGLNTNSHNQLEIRTLGSGVIMDQRGYIITNKHVINDADQIIVALQDGRVFEALLVGSDSLTDLAVLKINATGGLPTIPINARRVPHIGDVVLAIGNPYNLGQTITQGIISATGRIGLNPTGRQNFLQTDASINPGNSGGALVNSLGELMGINTLSFDKSNDGETPEGIGFAIPFQLATDIMDKLIRDGRVIRGYIGIGGREIAPLHAQGGGIDQLQGIVVNEVSPDGPAANAGIQVNDLIISVDNKPAISALETMDQVAEIRPGSVIPVVVMRDDKQLTLQVTIQEYPATN
modifications: left off: His6, N-terminal, state not stated
Regarding B4, in data set [8], the Michaelis-Menten constant (Km) was determined as 70 ± 5 µM and the Vmax was found to be 1.2 ± 0.1 s^-1 enz^-1.

As to {fluorescein-βAla}-KKDNRDGNYYF [fluorescein-β-alanine-KKDNRDGNYYF OMP peptide], the dissociation constant Kd in [9] came to 0.45 µM; in data set [10], 3.1 µM; in data set [11] it was 0.68 µM; in [12] it was 1.9 µM; in data set [13], 1.1 µM; in [14], 4.6 µM.
